{"source": "paper PMC5751952", "biological_target": "wild-type ElDyP lacking the His6 tag (subtilisin A-treated, for crystallization) (Enterobacter lignolyticus)", "experiment": "crystal structure"}
{"substance": "wild-type ElDyP lacking the His6 tag (subtilisin A-treated, for crystallization) (enzyme)", "values": [{"measurement": "stoichiometry N", "result": 2}]}
